Laboratory results taken from US20220340635A1 (ZHEJIANG DOER BIOLOGICS, published 2022).

Legend:
Test in all cases: cell-based or functional assay
β-klotho (KLB) = biological target: β-klotho (KLB)
GCGR = biological target: GCGR
human GLP-1R = human GLP-1R (human, UniProt P43220 24-463)

B1: A137L1F8L5M3 (Fc fusion)
chain: YSEGTFTSDYSKYLDSQAAQDFVQWLLDGGPSSGAPPPSGGGGSGGGGSGGGGSAESKYGPPCPPCPAPEAAGGPSVFLFPPKPKDTLMISRTPEVTCVVVDVSQEDPEVQFNWYVDGVEVHNAKTKPREEQFASTYRVVSVLTVLHQDWLNGKEYKCKVSNKGLPSSIEKTISKAKGQPREPQVYTLPPSQEEMTKNQVSLTCLVKGFYPSDIAVEWESNGQPENNYKTTPPVLDSDGSFFLYSRLTVDKSRWQEGNVFSCSVMHEALHNHYTQKSLSLSLGGGGGAGGGGAGGGGADSSPLLQFGGQVRQRYLYTDDAQQTEAHLEIREDGTVGGAADQSPESLLQLKALKPGVIQILGVKTSRFLCQRPDGALYGSLHFDPEACSFRELLLEDGYNVYQSEAHGLPLHCPGNKSPHRDPAPRGPCRFLPLPGLPPALPEPPGILAPQPPDVGSSDPLAMVGPSQGRSPSYAS
- FGF21 activity (EC50, nM) (β-klotho (KLB)): 0.82 nM
- GCGR agonist activity (EC50, nM) (GCGR): 41.2 nM
- GLP-1R agonist activity (EC50, nM) (human GLP-1R): 59.1 nM

B2: A175L1F8L5M3 (Fc fusion)
chain: YSEGTFTSDYSKYLDSQAAQDFVQWLLAGGPSSGAPPPSGGGGSGGGGSGGGGSAESKYGPPCPPCPAPEAAGGPSVFLFPPKPKDTLMISRTPEVTCVVVDVSQEDPEVQFNWYVDGVEVHNAKTKPREEQFASTYRVVSVLTVLHQDWLNGKEYKCKVSNKGLPSSIEKTISKAKGQPREPQVYTLPPSQEEMTKNQVSLTCLVKGFYPSDIAVEWESNGQPENNYKTTPPVLDSDGSFFLYSRLTVDKSRWQEGNVFSCSVMHEALHNHYTQKSLSLSLGGGGGAGGGGAGGGGADSSPLLQFGGQVRQRYLYTDDAQQTEAHLEIREDGTVGGAADQSPESLLQLKALKPGVIQILGVKTSRFLCQRPDGALYGSLHFDPEACSFRELLLEDGYNVYQSEAHGLPLHCPGNKSPHRDPAPRGPCRFLPLPGLPPALPEPPGILAPQPPDVGSSDPLAMVGPSQGRSPSYAS
- FGF21 activity (EC50, nM) (β-klotho (KLB)): 0.63 nM
- GCGR agonist activity (EC50, nM) (GCGR): 39.2 nM
- GLP-1R agonist activity (EC50, nM) (human GLP-1R): 47.1 nM

B3: A352L1F8L5W (Fc fusion)
chain: HSQGTFTSDYSKYLDSQAAQDFVQWLLAGGPSSGAPPPSGGGGSGGGGSGGGGSAESKYGPPCPPCPAPEAAGGPSVFLFPPKPKDTLMISRTPEVTCVVVDVSQEDPEVQFNWYVDGVEVHNAKTKPREEQFASTYRVVSVLTVLHQDWLNGKEYKCKVSNKGLPSSIEKTISKAKGQPREPQVYTLPPSQEEMTKNQVSLTCLVKGFYPSDIAVEWESNGQPENNYKTTPPVLDSDGSFFLYSRLTVDKSRWQEGNVFSCSVMHEALHNHYTQKSLSLSLGGGGGAGGGGAGGGGAHPIPDSSPLLQFGGQVRQRYLYTDDAQQTEAHLEIREDGTVGGAADQSPESLLQLKALKPGVIQILGVKTSRFLCQRPDGALYGSLHFDPEACSFRELLLEDGYNVYQSEAHGLPLHLPGNKSPHRDPAPRGPARFLPLPGLPPALPEPPGILAPQPPDVGSSDPLSMVGPSQGRSPSYAS
- FGF21 activity (EC50, nM) (β-klotho (KLB)): 0.55 nM
- GCGR agonist activity (EC50, nM) (GCGR): 1.22 nM
- GLP-1R agonist activity (EC50, nM) (human GLP-1R): 1.34 nM

B4: A382L1F8L5M1 (Fc fusion)
chain: HSQGTFTSDYSKYLDSQAAQDFVQWLLDGGPSSGAPPPSGGGGSGGGGSGGGGSAESKYGPPCPPCPAPEAAGGPSVFLFPPKPKDTLMISRTPEVTCVVVDVSQEDPEVQFNWYVDGVEVHNAKTKPREEQFASTYRVVSVLTVLHQDWLNGKEYKCKVSNKGLPSSIEKTISKAKGQPREPQVYTLPPSQEEMTKNQVSLTCLVKGFYPSDIAVEWESNGQPENNYKTTPPVLDSDGSFFLYSRLTVDKSRWQEGNVFSCSVMHEALHNHYTQKSLSLSLGGGGGAGGGGAGGGGAHPIPDSSPLLQFGGQVRQRYLYTDDAQQTEAHLEIREDGTVGGAADQSPESLLQLKALKPGVIQILGVKTSRFLCQRPDGALYGSLHFDPEACSFRERLLEDGYNVYQSEAHGLPLHLPGNKSPHRDPAPRGPARFLPLPGLPPALPEPPGILAPQPPDVGSSDPLSMVGGSQGRSPSYES
- FGF21 activity (EC50, nM) (β-klotho (KLB)): 0.79 nM
- GCGR agonist activity (EC50, nM) (GCGR): 1.2 nM
- GLP-1R agonist activity (EC50, nM) (human GLP-1R): 1.13 nM

B5: A352L1F8L5M1 (Fc fusion)
chain: HSQGTFTSDYSKYLDSQAAQDFVQWLLAGGPSSGAPPPSGGGGSGGGGSGGGGSAESKYGPPCPPCPAPEAAGGPSVFLFPPKPKDTLMISRTPEVTCVVVDVSQEDPEVQFNWYVDGVEVHNAKTKPREEQFASTYRVVSVLTVLHQDWLNGKEYKCKVSNKGLPSSIEKTISKAKGQPREPQVYTLPPSQEEMTKNQVSLTCLVKGFYPSDIAVEWESNGQPENNYKTTPPVLDSDGSFFLYSRLTVDKSRWQEGNVFSCSVMHEALHNHYTQKSLSLSLGGGGGAGGGGAGGGGAHPIPDSSPLLQFGGQVRQRYLYTDDAQQTEAHLEIREDGTVGGAADQSPESLLQLKALKPGVIQILGVKTSRFLCQRPDGALYGSLHFDPEACSFRERLLEDGYNVYQSEAHGLPLHLPGNKSPHRDPAPRGPARFLPLPGLPPALPEPPGILAPQPPDVGSSDPLSMVGGSQGRSPSYES
- FGF21 activity (EC50, nM) (β-klotho (KLB)): 0.79 nM
- GCGR agonist activity (EC50, nM) (GCGR): 1.2 nM
- GLP-1R agonist activity (EC50, nM) (human GLP-1R): 1.13 nM
